According to PMC6547419:

Legend:
rVEGF164 [1] = target: T1, rVEGF164 (rat, UniProt P16612-2 27-190); test: ELONA1
T1 sequence: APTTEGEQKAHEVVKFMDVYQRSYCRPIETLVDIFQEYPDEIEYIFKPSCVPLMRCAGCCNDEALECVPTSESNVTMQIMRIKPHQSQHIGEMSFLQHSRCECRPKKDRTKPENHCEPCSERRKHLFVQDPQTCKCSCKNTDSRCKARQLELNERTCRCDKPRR

hVEGF165 = hVEGF165 (human, UniProt P15692-4 27-191); test: ELONA1
rVEGF164 [2] = target: T1, rVEGF164; test: ELONA2

TGTGGGGGTGGACGGGCCGGGTAGA (ssDNA) [V7t1] was tested. Which Kd (rVEGF164 [1]) did it give?
The Kd was 0.62 ± 0.14 nM.

And the Kd (hVEGF165)?
Its Kd is 0.77 ± 0.17 nM.

What about the Kd (rVEGF164 [2]) of the same binder?
The Kd was 4.3 ± 0.5 nM.
